This note sets out measurements from PMC7005744, “Cis- and trans-regulations of pre-mRNA splicing by RNA editing enzymes influence cancer development”.

One series has as its target T1, ADAR1 (UniProt P55265 296-1226).
T1 sequence: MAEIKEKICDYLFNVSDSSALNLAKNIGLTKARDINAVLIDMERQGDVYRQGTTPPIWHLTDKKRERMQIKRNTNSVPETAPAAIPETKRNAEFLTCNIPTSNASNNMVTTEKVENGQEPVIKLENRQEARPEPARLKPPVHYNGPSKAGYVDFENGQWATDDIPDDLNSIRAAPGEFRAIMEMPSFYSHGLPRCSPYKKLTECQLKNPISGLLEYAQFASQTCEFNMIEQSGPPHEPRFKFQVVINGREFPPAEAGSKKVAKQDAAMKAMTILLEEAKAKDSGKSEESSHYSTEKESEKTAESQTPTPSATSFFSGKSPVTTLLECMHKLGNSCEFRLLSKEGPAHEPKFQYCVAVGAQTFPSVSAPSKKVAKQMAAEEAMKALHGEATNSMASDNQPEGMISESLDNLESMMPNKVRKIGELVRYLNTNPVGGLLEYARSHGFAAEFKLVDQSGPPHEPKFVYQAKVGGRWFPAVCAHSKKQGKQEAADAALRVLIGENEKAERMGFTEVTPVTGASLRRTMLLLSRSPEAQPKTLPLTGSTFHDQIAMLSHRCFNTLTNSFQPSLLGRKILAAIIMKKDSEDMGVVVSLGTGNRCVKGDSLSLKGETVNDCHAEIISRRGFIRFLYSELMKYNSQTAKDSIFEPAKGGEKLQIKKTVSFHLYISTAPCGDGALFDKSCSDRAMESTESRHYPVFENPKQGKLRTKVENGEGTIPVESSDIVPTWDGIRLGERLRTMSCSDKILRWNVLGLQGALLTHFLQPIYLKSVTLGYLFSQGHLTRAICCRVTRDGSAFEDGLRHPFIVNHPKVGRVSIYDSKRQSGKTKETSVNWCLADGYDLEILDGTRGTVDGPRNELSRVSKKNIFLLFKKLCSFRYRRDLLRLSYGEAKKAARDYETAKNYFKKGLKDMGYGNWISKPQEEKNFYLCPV
In words: EMSA; dose-dependent shift; REMSA/UV: 0.5 pmol 32P probe, 1x REMSA binding buffer (Thermo), 0.1 ug/ul yeast tRNA, room temperature 30 min, 6% native PAGE; pull-down: 250 mM NaCl, 10 mM MgCl2, 50 mM Hepes pH 7.4, 0.5% Igepal CA-630, tRNA, 4 C or RT 30 min. Conditions: protein: recombinant; tags: FLAG; chain copies: 2; label: 5' 32P; hairpin. For orientation: Mobility shift assays separate free from complexed probe on a gel.

A further series has as its target ADAR2 (UniProt P78563 1-741). Described as above. Conditions: protein: recombinant; tags: FLAG; chain copies: 2; label: 5' 32P; hairpin.

B1: CCDC15 In8-9 WT (structured_RNA)
RNA: GGUAGAAAAGAAAAAUGACACUCGAGUGUUUUUUUCUCUUCUACUU
As for B1, the binding result with ADAR1 and with ADAR2 was “binds” throughout.
